B1: SWI5-dependent HO expression protein 3 (Saccharomyces cerevisiae), P38272 (parent)
chain: MSDQDNTQTSSSKLAPHHNIFMANLESSPTKDRNTSSQNASSSRVIESLHDQIDMLTKTNLQLTTQSQNLLSKLELAQSKESKLLENLNLLKNENENLNSIFERKNKKLKELEKDYSELSNRYNEQKEKMDQLSKLAKNSSAIEQSCSEKLQNMEVNYNSLLESQNLYRDHYSDEISKLNEKIGLLELELSNQNLNYGSDTSSNSDIELNLNKFNDSVKDLKSLETEKDSKLSKIITHSLDELNLQSWLNLYQTNENLISTFAEKMDLKDVLKRNDEKISNKGAVVQTLKKNVQTQVESNNADALSSNNAQDMLPIKMVKLRKTPNTNDSSSNGNSSNNKRRSFYTASPLLSSGSIPKSASPVLPGVKRTASVRKPSSSSSKTNVTHNNDPSTSPTISVPPGVTRTVSSTHKKKGNSMVVHGAQS

The variants in the assay derive from B1. The settings on record: with she2_yeast SHE2, P36068.
she2_yeast SHE2, P36068, sequence (P36068 whole entry): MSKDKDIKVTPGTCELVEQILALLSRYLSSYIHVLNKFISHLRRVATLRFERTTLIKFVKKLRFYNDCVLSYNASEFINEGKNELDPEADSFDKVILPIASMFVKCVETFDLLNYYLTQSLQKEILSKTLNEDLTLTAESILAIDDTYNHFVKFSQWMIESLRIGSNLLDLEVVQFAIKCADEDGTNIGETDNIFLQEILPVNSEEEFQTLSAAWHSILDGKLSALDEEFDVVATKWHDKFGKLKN
As for MSDQDNTQTSSSKLAPHHNIFMANLESSPTKDRNTSSQNASSSRVIESLHDQIDMLTKTNLQLTTQSQNLLSKLELAQSKESKLLENLNLLKNENENLNSIFERKNKKLKELEKDYSELSNRYNEQKEKMDQLSKLAKNSSAIEQSCSEKLQNMEVNYNSLLESQNLYRDHYSDEISKLNEKIGLLELELSNQNLNYGSDTSSNSDIELNLNKFNDSVKDLKSLETEKDSKLSKIITHSLDELNLQSWLNLYQTNENLISTFAEKMDLKDVLKRNDEKISNKGAVVQTLKKNVQTQVESNNADALSSNNAQDMLPIKMVKLRKTPNTNDSSSNGNSSNNKRRSFYTASPLLSSGSIPKSASPVAPGAKRTASVRKPSSSSSKTNVTHNNDPSTSPTISVPPGVTRTVSSTHKKKGNSMVVHGAQS [L364A;V367A], the “effect of a mutation on the interaction” value is given as “disrupting interaction”.

For the origin of these results see IntAct's records for PubMed 21526221.
